Laboratory results: patent US20170015742A1 (published 2017)
Positions count from the first letter of the chain named.

B1: 1E3.4_GS_CL-33675 (bispecific antibody, human IgG1, kappa, L234A L235A)
heavy: EIQLVQSGSELKKPGASVKVSCKASGYPFTNSGMYWVKQAPGQGLEYMGWINTEAGKPTYADDFKGRFVFSLDTSVSTAYLQISSLKAEDTAVYFCARWGYISDNSYGWFDYWGQGTLVTVSSGGGGSGGGGSEVTLRESGPALVKPTQTLTLTCTFSGFSLSTYGMGVGWIRQPPGKALEWLANIWWDDDKYYNPSLKNRLTISKDTSKNQVVLTMTNMDPVDTATYYCARIESSGPKYSFDYWGQGTMVTVSSASTKGPSVFPLAPSSKSTSGGTAALGCLVKDYFPEPVTVSWNSGALTSGVHTFPAVLQSSGLYSLSSVVTVPSSSLGTQTYICNVNHKPSNTKVDKKVEPKSCDKTHTCPPCPAPEAAGGPSVFLFPPKPKDTLMISRTPEVTCVVVDVSHEDPEVKFNWYVDGVEVHNAKTKPREEQYNSTYRVVSVLTVLHQDWLNGKEYKCKVSNKALPAPIEKTISKAKGQPREPQVYTLPPSREEMTKNQVSLTCLVKGFYPSDIAVEWESNGQPENNYKTTPPVLDSDGSFFLYSKLTVDKSRWQQGNVFSCSVMHEALHNAYTQKSLSLSPGK
light: ATQLTQSPSSLSASVGDRVTISCRASEGVYSYMHWYQQKPGKQPKLLIYKASNLASGVPSRFSGSGSGTDFTLTISSLQPEDFATYFCHQNWNDPLTFGQGTKLEIKGGSGGGGSGGEIVLTQSPGTLSLSPGERATLSCRASSGSIWYSFVSWYQQKPGQAPRLLIYADDQRASGIPDRFSGSGSGTDFTLTISRLEPEDFAVYYCQSYGINIDVVFGGGTKVEIKRTVAAPSVFIFPPSDEQLKSGTASVVCLLNNFYPREAKVQWKVDNALQSGNSQESVTEQDSKDSTYSLSSTLTLSKADYEKHKVYACEVTHQGLSSPVTKSFNRGEC
B2: 1E3.4_GS_9E8.4 (bispecific antibody, human IgG1, kappa, L234A L235A)
heavy: B1 heavy with S236I, P238T, K239T
light: ATQLTQSPSSLSASVGDRVTISCRASEGVYSYMHWYQQKPGKQPKLLIYKASNLASGVPSRFSGSGSGTDFTLTISSLQPEDFATYFCHQNWNDPLTFGQGTKLEIKGGSGGGGSGGEFVLTQSPGTLSLSPGERATLSCERSSGDIGDSYVSWYQQKPGQAPRLVIYADDQRPSGIPDRFSGSGSGTDFTLTISRLEPEDFAVYYCQSYDINIDIVFGGGTKVEIKRTVAAPSVFIFPPSDEQLKSGTASVVCLLNNFYPREAKVQWKVDNALQSGNSQESVTEQDSKDSTYSLSSTLTLSKADYEKHKVYACEVTHQGLSSPVTKSFNRGEC
B3: 1B10.1_GS_3E2.1 (bispecific antibody, human IgG1, kappa, L234A L235A)
heavy: EVQLVESGGGLVQPGGSLRLSCAASGFSFSKYDMAWFRQAPGKGLEWVASITTSGVGTYYRDSVKGRFTVSRDNAKSTLYLQMNSLRAEDTAVYYCARGYGAMDAWGQGTTVTVSSGGGGSGGGGSEVQLVQSGAEVKKPGSSVKVSCKASGYTFTESYMYWVKQAPGQGLELIGRIDPEDGSTDYVEKFKNKATLTADKSTSTAYMELSSLRSEDTAVYFCARFGARSYFYPMDAWGQGTTVTVSSASTKGPSVFPLAPSSKSTSGGTAALGCLVKDYFPEPVTVSWNSGALTSGVHTFPAVLQSSGLYSLSSVVTVPSSSLGTQTYICNVNHKPSNTKVDKKVEPKSCDKTHTCPPCPAPEAAGGPSVFLFPPKPKDTLMISRTPEVTCVVVDVSHEDPEVKFNWYVDGVEVHNAKTKPREEQYNSTYRVVSVLTVLHQDWLNGKEYKCKVSNKALPAPIEKTISKAKGQPREPQVYTLPPSREEMTKNQVSLTCLVKGFYPSDIAVEWESNGQPENNYKTTPPVLDSDGSFFLYSKLTVDKSRWQQGNVFSCSVMHEALHNAYTQKSLSLSPGK
light: DIQMTQSPSSLSASVGDRVTITCKASQDIDDYLSWYQQKPGKSPKLVIYAATRLADGVPSRFSGSGSGTDYTLTISSLQPEDFATYYCLQSSSTPWTFGGGTKVEIKGGSGGGGSGGETVLTQSPATLSLSPGERATLSCRASESVSTLMHWYQQKPGQQPRLLIYGASNLESGVPARFSGSGSGTDFTLTISSLEPEDFAVYFCQQSWNDPWTFGGGTKVEIKRTVAAPSVFIFPPSDEQLKSGTASVVCLLNNFYPREAKVQWKVDNALQSGNSQESVTEQDSKDSTYSLSSTLTLSKADYEKHKVYACEVTHQGLSSPVTKSFNRGEC
B4: CL-33675_GS_1E3.4 (bispecific antibody, human IgG1, kappa, L234A L235A)
heavy: EVTLRESGPALVKPTQTLTLTCTFSGFSLSTYGMGVGWIRQPPGKALEWLANIWWDDDKYYNPSLKNRLTISKDTSKNQVVLTMTNMDPVDTATYYCARIESSGPKYSFDYWGQGTMVTVSSGGGGSGGGGSEIQLVQSGSELKKPGASVKVSCKASGYPFTNSGMYWVKQAPGQGLEYMGWINTEAGKPTYADDFKGRFVFSLDTSVSTAYLQISSLKAEDTAVYFCARWGYISDNSYGWFDYWGQGTLVTVSSASTKGPSVFPLAPSSKSTSGGTAALGCLVKDYFPEPVTVSWNSGALTSGVHTFPAVLQSSGLYSLSSVVTVPSSSLGTQTYICNVNHKPSNTKVDKKVEPKSCDKTHTCPPCPAPEAAGGPSVFLFPPKPKDTLMISRTPEVTCVVVDVSHEDPEVKFNWYVDGVEVHNAKTKPREEQYNSTYRVVSVLTVLHQDWLNGKEYKCKVSNKALPAPIEKTISKAKGQPREPQVYTLPPSREEMTKNQVSLTCLVKGFYPSDIAVEWESNGQPENNYKTTPPVLDSDGSFFLYSKLTVDKSRWQQGNVFSCSVMHEALHNAYTQKSLSLSPGK
light: EIVLTQSPGTLSLSPGERATLSCRASSGSIWYSFVSWYQQKPGQAPRLLIYADDQRASGIPDRFSGSGSGTDFTLTISRLEPEDFAVYYCQSYGINIDVVFGGGTKVEIKGGSGGGGSGGATQLTQSPSSLSASVGDRVTISCRASEGVYSYMHWYQQKPGKQPKLLIYKASNLASGVPSRFSGSGSGTDFTLTISSLQPEDFATYFCHQNWNDPLTFGQGTKLEIKRTVAAPSVFIFPPSDEQLKSGTASVVCLLNNFYPREAKVQWKVDNALQSGNSQESVTEQDSKDSTYSLSSTLTLSKADYEKHKVYACEVTHQGLSSPVTKSFNRGEC
B5: CL-33675_GS_9E10.1 (bispecific antibody, human IgG1, kappa, L234A L235A)
heavy: EVTLRESGPALVKPTQTLTLTCTFSGFSLSTYGMGVGWIRQPPGKALEWLANIWWDDDKYYNPSLKNRLTISKDTSKNQVVLTMTNMDPVDTATYYCARIESSGPKYSFDYWGQGTMVTVSSGGGGSGGGGSEIQLVQSGSELKKPGASVKVSCKASGYTFTNYGMYWVKQAPGQGLEYMGWIDTETGRPTYADDFKGRFVFSLDTSVSTAYLQISSLKAEDTAVYFCARWSGDTTGIRGPWFAYWGQGTLVTVSSASTKGPSVFPLAPSSKSTSGGTAALGCLVKDYFPEPVTVSWNSGALTSGVHTFPAVLQSSGLYSLSSVVTVPSSSLGTQTYICNVNHKPSNTKVDKKVEPKSCDKTHTCPPCPAPEAAGGPSVFLFPPKPKDTLMISRTPEVTCVVVDVSHEDPEVKFNWYVDGVEVHNAKTKPREEQYNSTYRVVSVLTVLHQDWLNGKEYKCKVSNKALPAPIEKTISKAKGQPREPQVYTLPPSREEMTKNQVSLTCLVKGFYPSDIAVEWESNGQPENNYKTTPPVLDSDGSFFLYSKLTVDKSRWQQGNVFSCSVMHEALHNAYTQKSLSLSPGK
light: EIVLTQSPGTLSLSPGERATLSCRASSGSIWYSFVSWYQQKPGQAPRLLIYADDQRASGIPDRFSGSGSGTDFTLTISRLEPEDFAVYYCQSYGINIDVVFGGGTKVEIKGGSGGGGSGGDIRMTQSPSSLSASVGDRVTIECLASEDIYSDLAWYQQKPGKSPKLLIYNANGLQNGVPSRFSGSGSGTDYSLTISSLQPEDVATYFCQQYNYFPGTFGQGTKLEIKRTVAAPSVFIFPPSDEQLKSGTASVVCLLNNFYPREAKVQWKVDNALQSGNSQESVTEQDSKDSTYSLSSTLTLSKADYEKHKVYACEVTHQGLSSPVTKSFNRGEC
B6: 9E8.4_GS_9E10.1 (bispecific antibody, human IgG1, kappa, L234A L235A)
heavy: B5 heavy with S103I, P105T, K106T
light: EFVLTQSPGTLSLSPGERATLSCERSSGDIGDSYVSWYQQKPGQAPRLVIYADDQRPSGIPDRFSGSGSGTDFTLTISRLEPEDFAVYYCQSYDINIDIVFGGGTKVEIKGGSGGGGSGGDIRMTQSPSSLSASVGDRVTIECLASEDIYSDLAWYQQKPGKSPKLLIYNANGLQNGVPSRFSGSGSGTDYSLTISSLQPEDVATYFCQQYNYFPGTFGQGTKLEIKRTVAAPSVFIFPPSDEQLKSGTASVVCLLNNFYPREAKVQWKVDNALQSGNSQESVTEQDSKDSTYSLSSTLTLSKADYEKHKVYACEVTHQGLSSPVTKSFNRGEC
B7: CL-33675_GS_9E10.6 (bispecific antibody, human IgG1, kappa, L234A L235A)
heavy: EVTLRESGPALVKPTQTLTLTCTFSGFSLSTYGMGVGWIRQPPGKALEWLANIWWDDDKYYNPSLKNRLTISKDTSKNQVVLTMTNMDPVDTATYYCARIESSGPKYSFDYWGQGTMVTVSSGGGGSGGGGSEVQLVQSGAEVKKPGSSVKVSCKASGYTFTNYGMYWVRQAPGQGLEWMGWIDTETGRPTYADDFKGRFTFTADKSTSTAYMELSSLRSEDTAVYYCARWSGDTTGIRGPWFAYWGQGTLVTVSSASTKGPSVFPLAPSSKSTSGGTAALGCLVKDYFPEPVTVSWNSGALTSGVHTFPAVLQSSGLYSLSSVVTVPSSSLGTQTYICNVNHKPSNTKVDKKVEPKSCDKTHTCPPCPAPEAAGGPSVFLFPPKPKDTLMISRTPEVTCVVVDVSHEDPEVKFNWYVDGVEVHNAKTKPREEQYNSTYRVVSVLTVLHQDWLNGKEYKCKVSNKALPAPIEKTISKAKGQPREPQVYTLPPSREEMTKNQVSLTCLVKGFYPSDIAVEWESNGQPENNYKTTPPVLDSDGSFFLYSKLTVDKSRWQQGNVFSCSVMHEALHNAYTQKSLSLSPGK
light: B5 light with E142T, S192T

Molecular target: recombinant human PDGF-BB (human, UniProt P01127 82-190)
Assay: cell-based or functional assay

Chain of recombinant human PDGF-BB (P01127 82-190 limits assumed): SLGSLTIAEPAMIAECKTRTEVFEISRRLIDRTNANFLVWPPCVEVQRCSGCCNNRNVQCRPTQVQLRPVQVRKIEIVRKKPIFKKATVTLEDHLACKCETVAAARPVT

In order of falling “Potency IC50 (nM) NIH-3T3 hPDGF-BB” value:
1. B3  1.54 nM
2. B2  0.329 nM
3. B6  0.317 nM
4. B4  0.039 nM
5. B1  0.037 nM
6. B7  0.037 nM
7. B5  0.031 nM

Molecular target: recombinant human VEGF165 (human, UniProt P15692 207-395)
Assay: cell-based or functional assay

Chain of recombinant human VEGF165 (P15692 other isoform, or with tags, fused parts or gaps limits assumed): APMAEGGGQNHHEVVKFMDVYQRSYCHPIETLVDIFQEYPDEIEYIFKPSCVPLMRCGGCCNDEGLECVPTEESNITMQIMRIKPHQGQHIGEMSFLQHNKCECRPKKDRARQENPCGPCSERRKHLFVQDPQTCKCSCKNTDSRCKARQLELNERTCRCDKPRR

In order of rising “Potency IC50 (nM) HMVEC-d hVEGF165” value:
1. B5  0.064 nM
2. B1  0.067 nM
3. B6  0.073 nM
4. B7  0.082 nM
5. B3  0.084 nM
6. B2  0.092 nM
7. B4  0.372 nM
